In the assay the target is Siglec-10 receptor overexpressed on CHO cells (UniProt Q96LC7).

This is an account of results in PMC4195440.

UniProt Q96LC7, sequence (Q96LC7 17-697): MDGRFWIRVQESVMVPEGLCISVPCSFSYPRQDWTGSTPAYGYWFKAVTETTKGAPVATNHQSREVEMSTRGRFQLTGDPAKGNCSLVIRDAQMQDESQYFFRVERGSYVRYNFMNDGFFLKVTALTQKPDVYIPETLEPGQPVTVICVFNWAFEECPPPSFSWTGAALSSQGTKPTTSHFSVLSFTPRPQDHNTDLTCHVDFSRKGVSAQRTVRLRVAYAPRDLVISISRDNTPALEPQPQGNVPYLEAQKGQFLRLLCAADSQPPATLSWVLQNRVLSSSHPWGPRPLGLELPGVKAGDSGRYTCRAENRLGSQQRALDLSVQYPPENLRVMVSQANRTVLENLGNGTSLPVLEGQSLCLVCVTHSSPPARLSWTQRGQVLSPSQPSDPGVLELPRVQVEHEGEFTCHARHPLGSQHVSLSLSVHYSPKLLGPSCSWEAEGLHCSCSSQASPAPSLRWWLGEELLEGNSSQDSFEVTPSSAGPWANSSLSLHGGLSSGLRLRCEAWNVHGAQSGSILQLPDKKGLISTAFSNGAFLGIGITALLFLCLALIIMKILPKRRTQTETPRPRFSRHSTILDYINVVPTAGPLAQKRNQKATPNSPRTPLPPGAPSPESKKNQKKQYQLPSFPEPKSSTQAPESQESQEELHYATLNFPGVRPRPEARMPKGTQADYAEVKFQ

In turn, “flagella (flagellin FlaA) of C. jejuni 11168H WT (from UniProt P56963 1-572) (natural protein)” yielded an IL-10 secretion (ELISA) of Siglec-10 transduced RAW264.7 cells against GFP control-transduced cells, infection with live 11168H WT, MOI 100, 24 hours of 2 fold.
